Each sequence was assayed on Fer (mouse) (assay: phosphorylation enrichment, bacterial display (enrichment ratio); higher = better substrate or ligand; peptides without Tyr show the background).
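Note: 11-residue human phosphosite peptides and single-mutation variants displayed on the E. coli surface, counted by deep sequencing, each peptide's frequency after selection divided by its frequency in the unselected input library; frequency after pTyr selection over input frequency; kinase dosed for 20-30% of maximal phosphorylation in three min.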

Compared with TRSYKCLLLSM [NF1_Y491_Y491C], EARRVYGDIIY [ALDH5A1_Y175_H180Y] is higher in phosphorylation enrichment: 0.402 for the first, 0.648 for the second.

Compared with GGQVFHNSEFG [FLT4_Y1333_Y1333H_YF], EFNINYNNEPP [THG1L_Y228_L232P] is higher in phosphorylation enrichment: 0.375 for the first, 0.6 for the second.

Compared with RVFIKYLPEWT [PSEN1_Y240_L235R], IGRGSYAKVLL [PRKCZ_Y263] is lower in phosphorylation enrichment: 1.02 for the first, 0.375 for the second.

Compared with DIRAQYDELAR [KRT18_Y256], FSMGCYEFSLG [HMGCL_Y198_I200F_YF] is higher in phosphorylation enrichment: 0.503 for the first, 3 for the second.

Compared with IDDLEYLHSQG [STK11_Y166_G163D], RGEEPYTKKAL [TTC21B_Y160_K157E] is lower in phosphorylation enrichment: 0.61 for the first, 0.552 for the second.

First: PIPAAYNRYDQ [CDC73_Y290]
Second: IFETDYFQKGG [INSR_Y1189_R1191Q_YF]
The phosphorylation enrichment of the first is higher: 0.593 for the first, 0.358 for the second.

Going from RFLFFYSFLLK [PTEN_Y178_V175L_YF] to ETAENYLGHTA [HSPA9_Y181], the phosphorylation enrichment falls from 0.765 to 0.443.

First: MYVKSYTIHYS [F5_Y2153]
Second: LEGAKYVSHGA [ASS1_Y113_R108L]
The phosphorylation enrichment of the first is lower: 0.508 for the first, 0.928 for the second.

Going from AAVPAYDKIQV [STXBP2_Y401_R405Q] to RVFRDYVLKSA [HTATIP2_Y111_D108Y_YF], the phosphorylation enrichment falls from 5.58 to 0.527.

First: CTTIHSNFMCN [TP53_Y234_Y234S_YF]
Second: PICEGYALPHA [ACTC1_Y171_Y168C]
The phosphorylation enrichment of the first is lower: 0.429 for the first, 0.577 for the second.

Compared with KTKIGYSPLHQ [ANK1_Y735_L733I], SSQTIYQRVEG [TFR2_Y23_V22I] is higher in phosphorylation enrichment: 0.434 for the first, 1.24 for the second.

Compared with FSQQVYRVNLS [FAT4_Y480], GFGGGYGGVLT [KRT19_Y65_A60G_YF] is lower in phosphorylation enrichment: 0.495 for the first, 0.492 for the second.

First: RFLERYIYNRE [HLA-DPB1_Y57]
Second: IVEFAYNDKAI [PUM3_Y259_YF]
The phosphorylation enrichment of the first is higher: 0.546 for the first, 0.406 for the second.

Compared with IGSHAYGDQFR [IDH1_Y135_R132S_YF], DPEGAYTTRGG [EPHA3_Y779_A777G] is higher in phosphorylation enrichment: 0.394 for the first, 0.515 for the second.

Going from ASTDFNKRGDF [PDHA1_Y243_Y243N_YF] to EGVPLYESATT [DCC_Y809], the phosphorylation enrichment rises from 0.347 to 7.75.

First: DLRTGYSVPFG [TGM1_Y370_Y365D_YF]
Second: ARLDEYIAIAK [RCOR3_Y46_K42R]
The phosphorylation enrichment of the first is higher: 0.486 for the first, 0.428 for the second.

Sequence PANTVYSTVEI [SLAMF7_Y304] has a phosphorylation enrichment of 23.3.

The sequences below were run against EPHB2 (UniProt P29323) in the same assay as above.
EPHB2, sequence (P29323 whole entry, looked up): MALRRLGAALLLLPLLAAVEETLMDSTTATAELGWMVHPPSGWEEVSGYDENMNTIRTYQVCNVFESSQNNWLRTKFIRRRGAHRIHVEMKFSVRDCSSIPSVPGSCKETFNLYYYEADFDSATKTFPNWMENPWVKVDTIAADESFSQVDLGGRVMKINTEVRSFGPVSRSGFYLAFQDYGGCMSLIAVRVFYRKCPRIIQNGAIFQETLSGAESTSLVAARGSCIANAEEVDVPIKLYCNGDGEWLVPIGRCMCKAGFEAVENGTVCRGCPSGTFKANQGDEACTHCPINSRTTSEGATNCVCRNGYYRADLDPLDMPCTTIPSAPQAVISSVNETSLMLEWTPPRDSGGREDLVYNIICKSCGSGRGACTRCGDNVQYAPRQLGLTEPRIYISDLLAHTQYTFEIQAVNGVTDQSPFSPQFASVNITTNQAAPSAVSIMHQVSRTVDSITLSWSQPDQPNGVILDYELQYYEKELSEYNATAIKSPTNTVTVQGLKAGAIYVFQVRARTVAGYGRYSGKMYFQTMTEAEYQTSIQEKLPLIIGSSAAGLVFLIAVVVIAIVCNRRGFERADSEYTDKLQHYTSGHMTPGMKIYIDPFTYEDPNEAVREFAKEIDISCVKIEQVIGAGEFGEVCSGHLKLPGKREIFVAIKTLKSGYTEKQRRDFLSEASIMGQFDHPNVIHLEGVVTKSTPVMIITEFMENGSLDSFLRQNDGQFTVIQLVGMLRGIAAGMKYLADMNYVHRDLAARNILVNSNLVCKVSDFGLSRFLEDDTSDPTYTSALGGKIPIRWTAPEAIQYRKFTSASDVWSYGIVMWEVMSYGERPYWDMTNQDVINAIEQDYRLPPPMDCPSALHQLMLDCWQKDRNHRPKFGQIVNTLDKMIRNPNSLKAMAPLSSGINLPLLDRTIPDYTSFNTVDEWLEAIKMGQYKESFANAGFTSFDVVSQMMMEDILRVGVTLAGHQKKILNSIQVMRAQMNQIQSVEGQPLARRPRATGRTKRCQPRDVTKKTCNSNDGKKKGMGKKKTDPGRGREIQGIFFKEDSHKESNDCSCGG

Going from TRSYKCLLLSM [NF1_Y491_Y491C] to EARRVYGDIIY [ALDH5A1_Y175_H180Y], the phosphorylation enrichment rises from 0.487 to 0.725.

Compared with GGQVFHNSEFG [FLT4_Y1333_Y1333H_YF], EFNINYNNEPP [THG1L_Y228_L232P] is higher in phosphorylation enrichment: 0.451 for the first, 0.566 for the second.

Compared with RVFIKYLPEWT [PSEN1_Y240_L235R], IGRGSYAKVLL [PRKCZ_Y263] is lower in phosphorylation enrichment: 1.34 for the first, 0.367 for the second.

Going from DIRAQYDELAR [KRT18_Y256] to FSMGCYEFSLG [HMGCL_Y198_I200F_YF], the phosphorylation enrichment rises from 0.483 to 0.984.

Going from IDDLEYLHSQG [STK11_Y166_G163D] to RGEEPYTKKAL [TTC21B_Y160_K157E], the phosphorylation enrichment falls from 0.777 to 0.476.

Going from PIPAAYNRYDQ [CDC73_Y290] to IFETDYFQKGG [INSR_Y1189_R1191Q_YF], the phosphorylation enrichment falls from 0.571 to 0.401.

Compared with RFLFFYSFLLK [PTEN_Y178_V175L_YF], ETAENYLGHTA [HSPA9_Y181] is higher in phosphorylation enrichment: 0.574 for the first, 0.652 for the second.

Going from MYVKSYTIHYS [F5_Y2153] to LEGAKYVSHGA [ASS1_Y113_R108L], the phosphorylation enrichment rises from 0.732 to 1.03.

Compared with AAVPAYDKIQV [STXBP2_Y401_R405Q], RVFRDYVLKSA [HTATIP2_Y111_D108Y_YF] is higher in phosphorylation enrichment: 0.417 for the first, 0.533 for the second.

Going from CTTIHSNFMCN [TP53_Y234_Y234S_YF] to PICEGYALPHA [ACTC1_Y171_Y168C], the phosphorylation enrichment rises from 0.555 to 0.587.

Compared with KTKIGYSPLHQ [ANK1_Y735_L733I], SSQTIYQRVEG [TFR2_Y23_V22I] is higher in phosphorylation enrichment: 0.449 for the first, 1.41 for the second.

First: FSQQVYRVNLS [FAT4_Y480]
Second: GFGGGYGGVLT [KRT19_Y65_A60G_YF]
The phosphorylation enrichment of the first is higher: 0.48 for the first, 0.444 for the second.

First: RFLERYIYNRE [HLA-DPB1_Y57]
Second: IVEFAYNDKAI [PUM3_Y259_YF]
The phosphorylation enrichment of the first is higher: 0.683 for the first, 0.59 for the second.

Going from IGSHAYGDQFR [IDH1_Y135_R132S_YF] to DPEGAYTTRGG [EPHA3_Y779_A777G], the phosphorylation enrichment rises from 0.389 to 0.501.

Going from ASTDFNKRGDF [PDHA1_Y243_Y243N_YF] to EGVPLYESATT [DCC_Y809], the phosphorylation enrichment rises from 0.341 to 4.87.

Compared with DLRTGYSVPFG [TGM1_Y370_Y365D_YF], ARLDEYIAIAK [RCOR3_Y46_K42R] is higher in phosphorylation enrichment: 0.468 for the first, 0.51 for the second.

PANTVYSTVEI [SLAMF7_Y304] gave a phosphorylation enrichment of 1.83.

What follows are sequences tested on c-Abl (mouse) in the same assay as above.

First: TRSYKCLLLSM [NF1_Y491_Y491C]
Second: EARRVYGDIIY [ALDH5A1_Y175_H180Y]
The phosphorylation enrichment of the first is higher: 0.637 for the first, 0.597 for the second.

Going from GGQVFHNSEFG [FLT4_Y1333_Y1333H_YF] to EFNINYNNEPP [THG1L_Y228_L232P], the phosphorylation enrichment rises from 0.531 to 0.852.

Compared with RVFIKYLPEWT [PSEN1_Y240_L235R], IGRGSYAKVLL [PRKCZ_Y263] is lower in phosphorylation enrichment: 1.13 for the first, 0.468 for the second.

Compared with DIRAQYDELAR [KRT18_Y256], FSMGCYEFSLG [HMGCL_Y198_I200F_YF] is higher in phosphorylation enrichment: 0.766 for the first, 1.47 for the second.

Compared with IDDLEYLHSQG [STK11_Y166_G163D], RGEEPYTKKAL [TTC21B_Y160_K157E] is lower in phosphorylation enrichment: 0.636 for the first, 0.487 for the second.

Going from PIPAAYNRYDQ [CDC73_Y290] to IFETDYFQKGG [INSR_Y1189_R1191Q_YF], the phosphorylation enrichment rises from 0.572 to 0.662.

First: RFLFFYSFLLK [PTEN_Y178_V175L_YF]
Second: ETAENYLGHTA [HSPA9_Y181]
The phosphorylation enrichment of the first is higher: 1.51 for the first, 0.559 for the second.

First: MYVKSYTIHYS [F5_Y2153]
Second: LEGAKYVSHGA [ASS1_Y113_R108L]
The phosphorylation enrichment of the first is lower: 0.674 for the first, 0.852 for the second.

Compared with AAVPAYDKIQV [STXBP2_Y401_R405Q], RVFRDYVLKSA [HTATIP2_Y111_D108Y_YF] is higher in phosphorylation enrichment: 0.96 for the first, 0.999 for the second.

Going from CTTIHSNFMCN [TP53_Y234_Y234S_YF] to PICEGYALPHA [ACTC1_Y171_Y168C], the phosphorylation enrichment rises from 0.507 to 0.897.

Compared with KTKIGYSPLHQ [ANK1_Y735_L733I], SSQTIYQRVEG [TFR2_Y23_V22I] is higher in phosphorylation enrichment: 0.456 for the first, 0.814 for the second.

Going from FSQQVYRVNLS [FAT4_Y480] to GFGGGYGGVLT [KRT19_Y65_A60G_YF], the phosphorylation enrichment falls from 0.532 to 0.493.

Compared with RFLERYIYNRE [HLA-DPB1_Y57], IVEFAYNDKAI [PUM3_Y259_YF] is higher in phosphorylation enrichment: 0.533 for the first, 0.538 for the second.

First: IGSHAYGDQFR [IDH1_Y135_R132S_YF]
Second: DPEGAYTTRGG [EPHA3_Y779_A777G]
The phosphorylation enrichment of the first is lower: 0.363 for the first, 0.789 for the second.

Compared with ASTDFNKRGDF [PDHA1_Y243_Y243N_YF], EGVPLYESATT [DCC_Y809] is higher in phosphorylation enrichment: 0.521 for the first, 0.831 for the second.

Compared with DLRTGYSVPFG [TGM1_Y370_Y365D_YF], ARLDEYIAIAK [RCOR3_Y46_K42R] is lower in phosphorylation enrichment: 0.794 for the first, 0.516 for the second.

In the case of PANTVYSTVEI [SLAMF7_Y304], the phosphorylation enrichment is reported as 6.76.

The sequences below were run against Fes (UniProt P07332) in the same assay as above.
Fes, sequence (P07332 whole entry, looked up): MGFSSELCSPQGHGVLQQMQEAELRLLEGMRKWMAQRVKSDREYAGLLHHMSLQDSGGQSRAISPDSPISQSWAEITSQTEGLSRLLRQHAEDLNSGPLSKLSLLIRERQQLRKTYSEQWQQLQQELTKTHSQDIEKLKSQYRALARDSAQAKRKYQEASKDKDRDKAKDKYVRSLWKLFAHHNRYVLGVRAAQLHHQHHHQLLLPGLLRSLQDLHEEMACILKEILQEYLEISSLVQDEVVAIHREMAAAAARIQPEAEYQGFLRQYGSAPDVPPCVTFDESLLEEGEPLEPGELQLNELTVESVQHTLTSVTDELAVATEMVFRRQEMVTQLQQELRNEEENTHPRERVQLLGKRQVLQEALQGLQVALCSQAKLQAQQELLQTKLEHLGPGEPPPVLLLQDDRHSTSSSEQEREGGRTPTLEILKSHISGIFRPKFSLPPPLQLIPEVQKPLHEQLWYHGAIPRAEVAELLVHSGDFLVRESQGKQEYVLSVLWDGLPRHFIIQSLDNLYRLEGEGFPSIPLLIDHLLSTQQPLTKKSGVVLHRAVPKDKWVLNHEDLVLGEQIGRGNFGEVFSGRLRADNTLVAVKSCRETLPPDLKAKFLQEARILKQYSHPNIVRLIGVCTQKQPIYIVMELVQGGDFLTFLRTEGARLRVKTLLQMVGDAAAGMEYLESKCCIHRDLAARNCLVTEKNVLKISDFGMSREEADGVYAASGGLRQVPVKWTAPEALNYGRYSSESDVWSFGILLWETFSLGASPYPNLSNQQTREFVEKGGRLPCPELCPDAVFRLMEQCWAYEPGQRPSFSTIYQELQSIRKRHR

Going from TRSYKCLLLSM [NF1_Y491_Y491C] to EARRVYGDIIY [ALDH5A1_Y175_H180Y], the phosphorylation enrichment falls from 0.94 to 0.834.

Compared with GGQVFHNSEFG [FLT4_Y1333_Y1333H_YF], EFNINYNNEPP [THG1L_Y228_L232P] is higher in phosphorylation enrichment: 0.668 for the first, 1.3 for the second.

First: RVFIKYLPEWT [PSEN1_Y240_L235R]
Second: IGRGSYAKVLL [PRKCZ_Y263]
The phosphorylation enrichment of the first is higher: 2.8 for the first, 0.545 for the second.

First: DIRAQYDELAR [KRT18_Y256]
Second: FSMGCYEFSLG [HMGCL_Y198_I200F_YF]
The phosphorylation enrichment of the first is lower: 1.01 for the first, 1.53 for the second.

Going from IDDLEYLHSQG [STK11_Y166_G163D] to RGEEPYTKKAL [TTC21B_Y160_K157E], the phosphorylation enrichment falls from 1.24 to 0.991.

First: PIPAAYNRYDQ [CDC73_Y290]
Second: IFETDYFQKGG [INSR_Y1189_R1191Q_YF]
The phosphorylation enrichment of the first is lower: 0.751 for the first, 1.01 for the second.

Going from RFLFFYSFLLK [PTEN_Y178_V175L_YF] to ETAENYLGHTA [HSPA9_Y181], the phosphorylation enrichment falls from 1.78 to 0.865.

Going from MYVKSYTIHYS [F5_Y2153] to LEGAKYVSHGA [ASS1_Y113_R108L], the phosphorylation enrichment falls from 1.17 to 1.14.

Compared with AAVPAYDKIQV [STXBP2_Y401_R405Q], RVFRDYVLKSA [HTATIP2_Y111_D108Y_YF] is lower in phosphorylation enrichment: 1.43 for the first, 1.15 for the second.

Going from CTTIHSNFMCN [TP53_Y234_Y234S_YF] to PICEGYALPHA [ACTC1_Y171_Y168C], the phosphorylation enrichment falls from 0.832 to 0.804.

Going from KTKIGYSPLHQ [ANK1_Y735_L733I] to SSQTIYQRVEG [TFR2_Y23_V22I], the phosphorylation enrichment rises from 0.512 to 0.716.

Compared with FSQQVYRVNLS [FAT4_Y480], GFGGGYGGVLT [KRT19_Y65_A60G_YF] is lower in phosphorylation enrichment: 0.729 for the first, 0.696 for the second.

Going from RFLERYIYNRE [HLA-DPB1_Y57] to IVEFAYNDKAI [PUM3_Y259_YF], the phosphorylation enrichment falls from 0.949 to 0.74.

Going from IGSHAYGDQFR [IDH1_Y135_R132S_YF] to DPEGAYTTRGG [EPHA3_Y779_A777G], the phosphorylation enrichment rises from 0.556 to 0.798.

First: ASTDFNKRGDF [PDHA1_Y243_Y243N_YF]
Second: EGVPLYESATT [DCC_Y809]
The phosphorylation enrichment of the first is lower: 0.585 for the first, 1.07 for the second.

Compared with DLRTGYSVPFG [TGM1_Y370_Y365D_YF], ARLDEYIAIAK [RCOR3_Y46_K42R] is lower in phosphorylation enrichment: 0.721 for the first, 0.621 for the second.

Work on PANTVYSTVEI [SLAMF7_Y304] yielded a phosphorylation enrichment of 2.16.

From the supplement of paper PMC10065799, “High-throughput profiling of sequence recognition by tyrosine kinases and SH2 domains using bacterial peptide display” (eLife, 2023)
